From patent US20160326532A1 (MAYO FOUNDATION FOR MEDICAL EDUCATION AND RESEARCH, published 2016)

Assays:
HIF-1α, endogenous = molecular target: T1, HIF-1α, endogenous (UniProt Q16665 1-826); assay: co-immunoprecipitation of endogenous proteins from HEK 293T cell extracts (FIG. 8A)
T1 construct: also called HIF-1alpha; hypoxia-inducible factor 1 alpha
Method: To study endogenous WSB1/pVHL binding, cells were treated with or without 10 μM MG 132 (Sigma) for 2 hours. Cells were lysed by sonication in NETN buffer (20 mM Tris-HCl, pH 8.0, 100 mM NaCl, 1 mM EDTA, 0.5% Nonidet P-40) containing 50 mM b-glycerophosphate, 10 mM NaF, and […] each of pepstatin A and aprotinin, freshly supplemented with protease inhibitor cocktail (Roche). Prior to immunoprecipitation, protein A-bound Agarose beads were incubated overnight with pVHL antibody (Cell Signaling, #2738), WSB1 antibody (Abcam, ab68953; Sigma, HPA003293; Proteintech, 1166-1-AP), or HIF-1α antibody (Abcam, ab51608) in PBS with 5% BSA at 4° C. ab68953 was used for most experiments (HPA003293 for IHC). Extracts were added before immunoprecipitation with protein-A agarose at 4° C. for 4 hours. After three washings in binding buffer, co-purified proteins were analyzed by Western blotting.

HA-tagged HIF-1α = molecular target: T2, HA-tagged HIF-1α (UniProt Q16665 1-826); assay: co-immunoprecipitation of exogenous proteins from HEK 293T cell extracts (FIG. 9A)
T2 construct: Plasmid from Addgene; also called exogenous HIF-1α; not shown: HA tag
T2 sequence (Q16665 whole entry): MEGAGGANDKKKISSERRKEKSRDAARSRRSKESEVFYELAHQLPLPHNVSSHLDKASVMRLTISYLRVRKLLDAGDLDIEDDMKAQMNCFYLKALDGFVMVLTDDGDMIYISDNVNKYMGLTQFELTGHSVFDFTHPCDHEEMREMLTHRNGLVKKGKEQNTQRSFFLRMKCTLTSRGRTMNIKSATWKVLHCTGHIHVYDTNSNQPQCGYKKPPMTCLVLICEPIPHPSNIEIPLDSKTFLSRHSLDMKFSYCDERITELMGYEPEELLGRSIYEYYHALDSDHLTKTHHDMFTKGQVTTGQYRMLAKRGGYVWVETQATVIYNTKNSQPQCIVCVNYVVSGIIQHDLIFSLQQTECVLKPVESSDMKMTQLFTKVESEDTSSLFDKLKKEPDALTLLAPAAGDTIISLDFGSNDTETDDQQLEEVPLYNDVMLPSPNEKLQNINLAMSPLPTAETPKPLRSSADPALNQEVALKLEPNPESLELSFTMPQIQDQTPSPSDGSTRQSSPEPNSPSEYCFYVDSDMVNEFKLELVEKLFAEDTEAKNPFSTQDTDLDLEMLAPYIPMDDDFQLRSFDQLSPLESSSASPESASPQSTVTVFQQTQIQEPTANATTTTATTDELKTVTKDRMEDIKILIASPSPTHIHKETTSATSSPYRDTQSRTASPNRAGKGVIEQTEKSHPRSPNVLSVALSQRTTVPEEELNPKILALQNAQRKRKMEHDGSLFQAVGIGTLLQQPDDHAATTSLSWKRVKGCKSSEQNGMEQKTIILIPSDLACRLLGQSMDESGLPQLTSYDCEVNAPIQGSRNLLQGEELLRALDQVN

T1 sequence (Q16665 whole entry): as above

binding result (HIF-1α, endogenous) | binding result (HA-tagged HIF-1α) | Binder
no binding |  | WD repeat and SOCS box-containing protein 1 (WSB1), endogenous (enzyme, also called WBS1) MASFPPRVNEKEIVRLRTIGELLAPAAPFDKKCGRENWTVAFAPDGSYFAWSQGHRTVKLVPWSQCLQNFLLHGTKNVTNSSSLRLPRQNSDGGQKNKPREHIIDCGDIVWSLAFGSSVPEKQSRCVNIEWHRFRFGQDQLLLATGLNNGRIKIWDVYTGKLLLNLVDHTEVVRDLTFAPDGSLILVSASRDKTLRVWDLKDDGNMMKVLRGHQNWVYSCAFSPDSSMLCSVGASKAVFLWNMDKYTMIRKLEGHHHDVVACDFSPDGALLATASYDTRVYIWDPHNGDILMEFGHLFPPPTPIFAGGANDRWVRSVSFSHDGLHVASLADDKMVRFWRIDEDYPVQVAPLSNGLCCAFSTDGSVLAAGTHDGSVYFWATPRQVPSLQHLCRMSIRRVMPTQEVQELPIPSKLLEFLSYRI
 | no binding | Myc-tagged WSB1 (WT) (enzyme, Plasmid obtained from Dr. Cheol Yong Choi; also called Myc-WSB1; WSB1-Myc; not shown: Myc tag) MASFPPRVNEKEIVRLRTIGELLAPAAPFDKKCGRENWTVAFAPDGSYFAWSQGHRTVKLVPWSQCLQNFLLHGTKNVTNSSSLRLPRQNSDGGQKNKPREHIIDCGDIVWSLAFGSSVPEKQSRCVNIEWHRFRFGQDQLLLATGLNNGRIKIWDVYTGKLLLNLVDHTEVVRDLTFAPDGSLILVSASRDKTLRVWDLKDDGNMMKVLRGHQNWVYSCAFSPDSSMLCSVGASKAVFLWNMDKYTMIRKLEGHHHDVVACDFSPDGALLATASYDTRVYIWDPHNGDILMEFGHLFPPPTPIFAGGANDRWVRSVSFSHDGLHVASLADDKMVRFWRIDEDYPVQVAPLSNGLCCAFSTDGSVLAAGTHDGSVYFWATPRQVPSLQHLCRMSIRRVMPTQEVQELPIPSKLLEFLSYRI
